Assay results from patent publication EP4670793A1.

Molecular target: human C1q (human) (UniProt P02745)
Test: C1q (50 nM) with 100 nM antibody on TNFa-activated HUVECs; bound C1q detected with biotinylated polyclonal anti-C1q and imaging; normalised to isotype IgG

Sequence of UniProt P02745 (P02745 23-245, chain 1 of 3): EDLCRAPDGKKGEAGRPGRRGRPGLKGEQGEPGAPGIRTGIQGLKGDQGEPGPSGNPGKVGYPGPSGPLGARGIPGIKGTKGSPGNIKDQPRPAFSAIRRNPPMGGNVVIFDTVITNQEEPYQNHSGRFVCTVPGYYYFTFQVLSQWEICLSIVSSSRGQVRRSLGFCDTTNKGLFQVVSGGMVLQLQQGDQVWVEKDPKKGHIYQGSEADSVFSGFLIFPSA
Sequence of UniProt P02745 (chain, as listed by the source, chain 2 of 3): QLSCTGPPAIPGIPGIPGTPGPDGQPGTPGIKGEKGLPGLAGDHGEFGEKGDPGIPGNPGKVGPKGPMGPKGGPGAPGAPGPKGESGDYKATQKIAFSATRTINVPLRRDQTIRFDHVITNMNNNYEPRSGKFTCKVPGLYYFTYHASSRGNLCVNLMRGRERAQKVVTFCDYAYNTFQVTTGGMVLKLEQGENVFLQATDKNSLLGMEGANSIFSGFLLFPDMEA
Sequence of UniProt P02745 (chain, as listed by the source, chain 3 of 3): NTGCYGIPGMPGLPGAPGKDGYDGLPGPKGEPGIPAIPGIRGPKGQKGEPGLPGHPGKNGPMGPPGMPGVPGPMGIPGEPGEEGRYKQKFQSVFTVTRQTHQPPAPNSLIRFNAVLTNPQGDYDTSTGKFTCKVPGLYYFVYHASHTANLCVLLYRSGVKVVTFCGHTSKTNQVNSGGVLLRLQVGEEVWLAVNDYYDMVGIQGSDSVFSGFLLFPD

- % inhibition of binding of C1q to activated endothelial cells: 94%
Substance: control antibody comprising murine heavy and light chain variable regions of the anti-C1q antibody M1 (Annexon Biosciences) with hIgG1 and kappa constant regions
